# From US20150139990A1 (DAINIPPON SUMITOMO PHARMA, published 2015)
# Where two headings read alike, the source gives them in different places.
# T1: human CD81 mutant H151A (human, UniProt P60033 1-236, limits assumed)
# T1 construct: as m30; not shown: C-terminal V5 and 6xHis tags
# T1 sequence: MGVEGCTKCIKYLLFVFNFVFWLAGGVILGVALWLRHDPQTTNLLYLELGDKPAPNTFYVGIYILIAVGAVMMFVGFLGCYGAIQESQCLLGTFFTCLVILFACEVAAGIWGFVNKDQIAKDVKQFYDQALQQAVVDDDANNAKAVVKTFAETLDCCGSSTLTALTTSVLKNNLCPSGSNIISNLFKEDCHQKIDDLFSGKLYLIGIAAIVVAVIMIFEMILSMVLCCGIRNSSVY
# T2: human CD81 mutant T163A (human, UniProt P60033 1-236, limits assumed)
# T2 construct: as m30; not shown: C-terminal V5 and 6xHis tags
# T2 sequence: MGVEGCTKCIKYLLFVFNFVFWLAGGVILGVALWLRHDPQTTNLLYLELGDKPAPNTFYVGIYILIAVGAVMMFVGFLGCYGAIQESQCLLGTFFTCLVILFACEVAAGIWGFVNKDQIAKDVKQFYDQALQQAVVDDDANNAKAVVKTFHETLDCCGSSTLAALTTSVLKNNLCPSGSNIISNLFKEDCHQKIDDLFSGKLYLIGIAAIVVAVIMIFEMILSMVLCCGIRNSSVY
# T3: human CD81 mutant V169A (human, UniProt P60033 1-236, limits assumed)
# T3 construct: as m30; not shown: C-terminal V5 and 6xHis tags
# T3 sequence: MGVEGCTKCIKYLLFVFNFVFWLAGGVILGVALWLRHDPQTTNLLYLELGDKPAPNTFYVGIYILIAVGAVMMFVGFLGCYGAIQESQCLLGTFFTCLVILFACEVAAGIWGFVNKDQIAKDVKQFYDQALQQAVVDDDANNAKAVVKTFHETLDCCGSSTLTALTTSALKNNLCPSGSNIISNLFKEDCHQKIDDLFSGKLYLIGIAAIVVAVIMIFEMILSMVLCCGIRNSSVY
# T4: human CD81 mutant V135A (human, UniProt P60033 1-236, limits assumed)
# T4 construct: as m30; not shown: C-terminal V5 and 6xHis tags
# T4 sequence: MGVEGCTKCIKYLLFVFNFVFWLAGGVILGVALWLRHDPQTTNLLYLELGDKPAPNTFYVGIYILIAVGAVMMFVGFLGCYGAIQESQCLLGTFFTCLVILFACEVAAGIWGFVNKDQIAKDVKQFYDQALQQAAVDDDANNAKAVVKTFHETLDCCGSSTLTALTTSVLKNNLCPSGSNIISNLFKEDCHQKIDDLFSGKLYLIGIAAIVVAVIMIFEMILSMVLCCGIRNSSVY
# T5: human CD81 mutant L165A (human, UniProt P60033 1-236, limits assumed)
# T5 construct: as m30; not shown: C-terminal V5 and 6xHis tags
# T5 sequence: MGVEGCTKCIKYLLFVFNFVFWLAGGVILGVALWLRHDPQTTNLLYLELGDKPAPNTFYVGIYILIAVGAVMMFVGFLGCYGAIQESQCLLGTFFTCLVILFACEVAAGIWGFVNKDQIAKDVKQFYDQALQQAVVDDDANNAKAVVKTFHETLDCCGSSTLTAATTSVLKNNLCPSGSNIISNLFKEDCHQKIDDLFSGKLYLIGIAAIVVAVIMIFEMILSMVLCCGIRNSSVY
# T6: human CD81 mutant G158S (human, UniProt P60033 1-236, limits assumed)
# T6 construct: as m30; not shown: C-terminal V5 and 6xHis tags
# T6 sequence: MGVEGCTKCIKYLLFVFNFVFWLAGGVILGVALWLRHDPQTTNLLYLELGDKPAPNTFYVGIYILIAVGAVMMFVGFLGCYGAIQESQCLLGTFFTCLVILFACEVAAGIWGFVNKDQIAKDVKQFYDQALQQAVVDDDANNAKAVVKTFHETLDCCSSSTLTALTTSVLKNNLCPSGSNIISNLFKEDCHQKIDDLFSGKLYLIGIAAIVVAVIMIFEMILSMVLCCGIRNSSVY
# T7: human CD81 mutant D137A (human, UniProt P60033 1-236, limits assumed)
# T7 construct: as m30; not shown: C-terminal V5 and 6xHis tags
# T7 sequence: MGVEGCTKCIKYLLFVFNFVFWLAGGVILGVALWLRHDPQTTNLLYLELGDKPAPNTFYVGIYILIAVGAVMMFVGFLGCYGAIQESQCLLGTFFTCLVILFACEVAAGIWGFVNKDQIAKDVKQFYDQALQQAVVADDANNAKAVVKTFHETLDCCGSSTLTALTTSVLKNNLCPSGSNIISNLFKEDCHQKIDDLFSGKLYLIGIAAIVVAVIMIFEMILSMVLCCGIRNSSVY
# T8: human CD81 mutant L170A (human, UniProt P60033 1-236, limits assumed)
# T8 construct: as m30; not shown: C-terminal V5 and 6xHis tags
# T8 sequence: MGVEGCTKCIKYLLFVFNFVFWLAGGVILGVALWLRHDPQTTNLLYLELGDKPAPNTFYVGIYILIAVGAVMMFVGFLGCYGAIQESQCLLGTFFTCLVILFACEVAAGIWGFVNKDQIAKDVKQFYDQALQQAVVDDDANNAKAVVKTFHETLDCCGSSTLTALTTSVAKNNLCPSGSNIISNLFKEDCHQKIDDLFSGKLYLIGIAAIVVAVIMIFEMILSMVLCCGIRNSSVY
# Tests used:
# Experiment in all cases: ELISA
# [1] = target: T1, human CD81 mutant H151A
# [2] = target: T2, human CD81 mutant T163A
# [3] = target: T3, human CD81 mutant V169A
# [4] = target: T4, human CD81 mutant V135A
# [5] = target: T5, human CD81 mutant L165A
# [6] = target: T6, human CD81 mutant G158S
# [7] = target: T7, human CD81 mutant D137A
# [8] = target: T3, human CD81 mutant V169A; remark: listed apart in the source
# Procedure, shortened: (§1)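 Human CD81 point mutants in pcDNA-DEST40 with C-terminal V5 and 6×His tags were expressed transiently in CHO cells for 48 hours. Membranes were solubilised with 1% n-octylglucoside and loaded at 5 μg/100 μL/well on Ni-NTA His Sorb plates (3 hours, 4° C). Antibody binding (1 hour, room temperature) was detected with HRP anti-human IgG4, TMB and absorbance at 450 nm. Relative binding affinity is the percentage of wild-type CD81 binding, corrected for V5-tag expression.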
# [9] = target: T4, human CD81 mutant V135A; remark: listed apart in the source
# Procedure, shortened: as §1
# [10] = target: T5, human CD81 mutant L165A; remark: listed apart in the source
# Procedure, shortened: as §1
# [11] = target: T6, human CD81 mutant G158S; remark: listed apart in the source
# Procedure, shortened: as §1
# [12] = target: T7, human CD81 mutant D137A; remark: listed apart in the source
# Procedure, shortened: as §1
# [13] = target: T8, human CD81 mutant L170A
relative binding affinity [1] [%],relative binding affinity [2] [%],relative binding affinity [3] [%],relative binding affinity [4] [%],relative binding affinity [5] [%],relative binding affinity [6] [%],relative binding affinity [7] [%],relative binding affinity [8] [%],relative binding affinity [9] [%],relative binding affinity [10] [%],relative binding affinity [11] [%],relative binding affinity [12] [%],relative binding affinity [13] [%],Binder
< 20,< 20,< 20,< 20,< 20,< 20,< 20,< 20,< 20,< 20,< 20,< 20,,"002-A07 IgG4 antibody (antibody, human IgG4 S228P, lambda light chain) heavy: not shown light: QSVLTQPPSASGTPGQRVTISCTGSTSNIGAGYDTHWYQQLPGTAPKLLIYGNSNRPSGVPDRFSGSKSGTSASLAISGLRSEDEADYYCQSYDTNLSVWVFGGGTKLTVLGQPKAAPSVTLFPPSSEELQANKATLVCLISDFYPGAVTVAWKADSSPVKAGVETTTPSKQSNNKYAASSYLSLTPEQWKSHRSYSCQVTHEGSTVEKTVAPTECS"
< 20,< 20,< 20,< 20,< 20,< 20,< 20,,,,,,< 20,"002-A07 S115A (antibody, human IgG4 S228P, lambda, V domains shown, IgG4 S228P; glycosylation site mutant of 002-A07 VL) VH: EVQLLESGGGLVQPGGSLRLSCAASGFTFSSNYMSWVRQAPGKGLEWVSYISSSSTYTDYADSVKGRFTISRDNSKNTLYLQMNSLRAEDTAVYYCARYSYGRDNFDYWGQGTLVTVSS VL: QSVLTQPPSASGTPGQRVTISCTGSTSNIGAGYDTHWYQQLPGTAPKLLIYGNSNRPSGVPDRFSGSKSGTSASLAISGLRSEDEADYYCQSYDTNLAVWVFGGGTKLTVLG"
,< 20,< 20,< 20,< 20,< 20,< 20,,,,,,,"002-A07 S115G (antibody, human IgG4 S228P, lambda, V domains shown, IgG4 S228P; glycosylation site mutant of 002-A07 VL) VH: EVQLLESGGGLVQPGGSLRLSCAASGFTFSSNYMSWVRQAPGKGLEWVSYISSSSTYTDYADSVKGRFTISRDNSKNTLYLQMNSLRAEDTAVYYCARYSYGRDNFDYWGQGTLVTVSS VL: QSVLTQPPSASGTPGQRVTISCTGSTSNIGAGYDTHWYQQLPGTAPKLLIYGNSNRPSGVPDRFSGSKSGTSASLAISGLRSEDEADYYCQSYDTNLGVWVFGGGTKLTVLG"
,,< 20,< 20,< 20,< 20,< 20,,,,,,,"003-D07 (antibody, human IgG4 S228P, lambda, V domains shown, IgG4 S228P) VH: EVQLLESGGGLVQPGGSLRLSCAASGFTFSSNYMSWVRQAPGKGLEWVSYISSSSTYTDYADSVKGRFTISRDNSKNTLYLQMNSLRAEDTAVYYCARYSYDRDNFDYWGQGTLVTVSS VL: QSVLTQPFSASGTPGQRVTISCTGSTSNIGAGYDTHWYQHLPGTAPKLLIYGNSNRPSGVPDRFSGSKSGTSASLAISGLRSEDEADYYCQSYDTNLSVWVFGGGTKLTVLG"
< 20,< 20,< 20,< 20,< 20,< 20,< 20,,,,,,< 20,"002-A07 N113G (antibody, human IgG4 S228P, lambda, V domains shown, IgG4 S228P; glycosylation site mutant of 002-A07 VL) VH: EVQLLESGGGLVQPGGSLRLSCAASGFTFSSNYMSWVRQAPGKGLEWVSYISSSSTYTDYADSVKGRFTISRDNSKNTLYLQMNSLRAEDTAVYYCARYSYGRDNFDYWGQGTLVTVSS VL: QSVLTQPPSASGTPGQRVTISCTGSTSNIGAGYDTHWYQQLPGTAPKLLIYGNSNRPSGVPDRFSGSKSGTSASLAISGLRSEDEADYYCQSYDTGLSVWVFGGGTKLTVLG"
< 20,< 20,< 20,< 20,< 20,< 20,< 20,,,,,,,"002-A07 N113Q (antibody, human IgG4 S228P, lambda, V domains shown, IgG4 S228P; glycosylation site mutant of 002-A07 VL) VH: EVQLLESGGGLVQPGGSLRLSCAASGFTFSSNYMSWVRQAPGKGLEWVSYISSSSTYTDYADSVKGRFTISRDNSKNTLYLQMNSLRAEDTAVYYCARYSYGRDNFDYWGQGTLVTVSS VL: QSVLTQPPSASGTPGQRVTISCTGSTSNIGAGYDTHWYQQLPGTAPKLLIYGNSNRPSGVPDRFSGSKSGTSASLAISGLRSEDEADYYCQSYDTQLSVWVFGGGTKLTVLG"
< 20,< 20,< 20,< 20,< 20,< 20,< 20,,,,,,< 20,"002-A07 N113S (antibody, human IgG4 S228P, lambda, V domains shown, IgG4 S228P; glycosylation site mutant of 002-A07 VL) VH: EVQLLESGGGLVQPGGSLRLSCAASGFTFSSNYMSWVRQAPGKGLEWVSYISSSSTYTDYADSVKGRFTISRDNSKNTLYLQMNSLRAEDTAVYYCARYSYGRDNFDYWGQGTLVTVSS VL: QSVLTQPPSASGTPGQRVTISCTGSTSNIGAGYDTHWYQQLPGTAPKLLIYGNSNRPSGVPDRFSGSKSGTSASLAISGLRSEDEADYYCQSYDTSLSVWVFGGGTKLTVLG"
